Laboratory results reported in US12099068B2, “Biomarkers for graft-versus-host disease” (Incyte Corporation, priority 2018, dated 2024).

B1: PAR-1 (protein, UniProt P25116 42-425, looked up)
Proteinase-activated receptor …: SFLLRNPNDKYEPFWEDEEKNESGLTEYRLVSINKSSPLQKQLPAFISEDASGYLTSSWLTLFVPSVYTGVFVVSLPLNIMAIVVFILKMKVKKPAVVYMLHLATADVLFVSVLPFKISYYFSGSDWQFGSELCRFVTAAFYCNMYASILLMTVISIDRFLAVVYPMQSLSWRTLGRASFTCLAIWALAIAGVVPLLLKEQTIQVPGLNITTCHDVLNETLLEGYYAYYFSAFSAVFFFVPLIISTVCYVSIIRCLSSSAVANRSKKSRALFLSAAVFCIFIICFGPTNVLLIAHYSFLSHTSTTEAAYFAYLLCVCVSSISCCIDPLIYYYASSECQRYVYSILCCKESSDPSSYNSSGQLMASKMDTCSSNLNNSIYKKLLT
B2: WAS (protein, UniProt P42768 2-502, looked up)
Actin nucleation-promoting …: SGGPMGGRPGGRGAPAVQQNIPSTLLQDHENQRLFEMLGRKCLTLATAVVQLYLALPPGAEHWTKEHCGAVCFVKDNPQKSYFIRLYGLQAGRLLWEQELYSQLVYSTPTPFFHTFAGDDCQAGLNFADEDEAQAFRALVQEKIQKRNQRQSGDRRQLPPPPTPANEERRGGLPPLPLHPGGDQGGPPVGPLSLGLATVDIQNPDITSSRYRGLPAPGPSPADKKRSGKKKISKADIGAPSGFKHVSHVGWDPQNGFDVNNLDPDLRSLFSRAGISEAQLTDAETSKLIYDFIEDQGGLEAVRQEMRRQEPLPPPPPPSRGGNQLPRPPIVGGNKGRSGPLPPVPLGIAPPPPTPRGPPPPGRGGPPPPPPPATGRSGPLPPPPPGAGGPPMPPPPPPPPPPPSSGNGPAPPPLPPALVPAGGLAPGGGRGALLDQIRQGIQLNKTPGAPESSALQPPPQSSEGLVGALMHVMQKRSRAIHSSDEGEDQAGDEDEDDEWDD
B3: FR-gamma (protein, UniProt P41439 23-245, looked up)
Folate receptor gamma: QPRSARARTDLLNVCMNAKHHKTQPSPEDELYGQCSPWKKNACCTASTSQELHKDTSRLYNFNWDHCGKMEPTCKRHFIQDSCLYECSPNLGPWIRQVNQSWRKERILNVPLCKEDCERWWEDCRTSYTCKSNWHKGWNWTSGINECPAGALCSTFESYFPTPAALCEGLWSHSFKVSNYSRGSGRCIQMWFDSAQGNPNEEVAKFYAAAMNAGAPSRGIIDS
B4: CD69 (protein, UniProt Q07108 1-199, looked up)
Early activation antigen CD69: MSSENCFVAENSSLHPESGQENDATSPHFSTRHEGSFQVPVLCAVMNVVFITILIIALIALSVGQYNCPGQYTFSMPSDSHVSSCSEDWVGYQRKCYFISTVKRSWTSAQNACSEHGATLAVIDSEKDMNFLKRYAGREEHWVGLKKEPGHPWKWSNGKEFNNWFNVTGSDKCVFLKNTEVSSMECEKNLYWICNKPYK
B5: SH2D1A (protein, UniProt O60880 1-128, looked up)
SH2 domain-containing protein …: MDAVAVYHGKISRETGEKLLLATGLDGSYLLRDSESVPGVYCLCVLYHGYIYTYRVSQTETGSWSAETAPGVHKRYFRKIKNLISAFQKPDQGIVIPLQYPVEKKSSARSTQGTTGIREDPDVCLKAP
B6: AZU1 (protein, UniProt P20160 27-248, looked up)
Azurocidin: IVGGRKARPRQFPFLASIQNQGRHFCGGALIHARFVMTAASCFQSQNPGVSTVVLGAYDLRRRERQSRQTFSISSMSENGYDPQQNLNDLMLLQLDREANLTSSVTILPLPLQNATVEAGTRCQVAGWGSQRSGGRLSRFPRFVNVTVTPEDQCRPNNVCTGVLTRRGGICNGDGGTPLVCEGLAHGVASFSLGPCGRGPDFFTRVALFRDWIDGVLNNPGP
B7: RETN (protein, UniProt Q9HD89 19-108, looked up)
Resistin: KTLCSMEEAINERIQEVAGSLIFRAISSIGLECQSVTSRGDLATCPRGFAVTGCTCGSACGSWDVRAETTCHCQCAGMDWTGARCCRVQP
B8: CCL25 (protein, UniProt O15444 24-150, looked up)
C-C motif chemokine 25: QGVFEDCCLAYHYPIGWAVLRRAWTYRIQEVSGSCNLPAAIFYLPKRHRKVCGNPKSREVQRAMKLLDARNKVFAKLHHNTQTFQAGPHAVKKLSSGNSKLSSSKFSNPISSSKRNVSLLISANSGL
B9: BCR (protein, UniProt P11274 1-1271, looked up)
Breakpoint cluster region …: MVDPVGFAEAWKAQFPDSEPPRMELRSVGDIEQELERCKASIRRLEQEVNQERFRMIYLQTLLAKEKKSYDRQRWGFRRAAQAPDGASEPRASASRPQPAPADGADPPPAEEPEARPDGEGSPGKARPGTARRPGAAASGERDDRGPPASVAALRSNFERIRKGHGQPGADAEKPFYVNVEFHHERGLVKVNDKEVSDRISSLGSQAMQMERKKSQHGAGSSVGDASRPPYRGRSSESSCGVDGDYEDAELNPRFLKDNLIDANGGSRPPWPPLEYQPYQSIYVGGMMEGEGKGPLLRSQSTSEQEKRLTWPRRSYSPRSFEDCGGGYTPDCSSNENLTSSEEDFSSGQSSRVSPSPTTYRMFRDKSRSPSQNSQQSFDSSSPPTPQCHKRHRHCPVVVSEATIVGVRKTGQIWPNDGEGAFHGDADGSFGTPPGYGCAADRAEEQRRHQDGLPYIDDSPSSSPHLSSKGRGSRDALVSGALESTKASELDLEKGLEMRKWVLSGILASEETYLSHLEALLLPMKPLKAAATTSQPVLTSQQIETIFFKVPELYEIHKEFYDGLFPRVQQWSHQQRVGDLFQKLASQLGVYRAFVDNYGVAMEMAEKCCQANAQFAEISENLRARSNKDAKDPTTKNSLETLLYKPVDRVTRSTLVLHDLLKHTPASHPDHPLLQDALRISQNFLSSINEEITPRRQSMTVKKGEHRQLLKDSFMVELVEGARKLRHVFLFTDLLLCTKLKKQSGGKTQQYDCKWYIPLTDLSFQMVDELEAVPNIPLVPDEELDALKIKISQIKNDIQREKRANKGSKATERLKKKLSEQESLLLLMSPSMAFRVHSRNGKSYTFLISSDYERAEWRENIREQQKKCFRSFSLTSVELQMLTNSCVKLQTVHSIPLTINKEDDESPGLYGFLNVIVHSATGFKQSSNLYCTLEVDSFGYFVNKAKTRVYRDTAEPNWNEEFEIELEGSQTLRILCYEKCYNKTKIPKEDGESTDRLMGKGQVQLDPQALQDRDWQRTVIAMNGIEVKLSVKFNSREFSLKRMPSRKQTGVFGVKIAVVTKRERSKVPYIVRQCVEEIERRGMEEVGIYRVSGVATDIQALKAAFDVNNKDVSVMMSEMDVNAIAGTLKLYFRELPEPLFTDEFYPNFAEGIALSDPVAKESCMLNLLLSLPEANLLTFLFLLDHLKRVAEKEAVNKMSLHNLATVFGPTLLRPSEKESKLPANPSQPITMTDSWSLEVMSQVQVLLYFLQLEAIPAPDSKRQSILFSTEV
B10: RNASE3 (protein, UniProt P12724 28-160, looked up)
Eosinophil cationic protein: RPPQFTRAQWFAIQHISLNPPRCTIAMRAINNYRWRCKNQNTFLRTTFANVVNVCGNQSIRCPHNRTLNNCHRSRFRVPLLHCDLINPGAQNISNCTYADRPGRRFYVVACDNRDPRDSPRYPVVPVHLDTTI
B11: ADAM 8 (protein, UniProt P78325 17-824, looked up)
Disintegrin and …: IAPSRPWALMEQYEVVLPWRLPGPRVRRALPSHLGLHPERVSYVLGATGHNFTLHLRKNRDLLGSGYTETYTAANGSEVTEQPRGQDHCFYQGHVEGYPDSAASLSTCAGLRGFFQVGSDLHLIEPLDEGGEGGRHAVYQAEHLLQTAGTCGVSDDSLGSLLGPRTAAVFRPRPGDSLPSRETRYVELYVVVDNAEFQMLGSEAAVRHRVLEVVNHVDKLYQKLNFRVVLVGLEIWNSQDRFHVSPDPSVTLENLLTWQARQRTRRHLHDNVQLITGVDFTGTTVGFARVSAMCSHSSGAVNQDHSKNPVGVACTMAHEMGHNLGMDHDENVQGCRCQERFEAGRCIMAGSIGSSFPRMFSDCSQAYLESFLERPQSVCLANAPDLSHLVGGPVCGNLFVERGEQCDCGPPEDCRNRCCNSTTCQLAEGAQCAHGTCCQECKVKPAGELCRPKKDMCDLEEFCDGRHPECPEDAFQENGTPCSGGYCYNGACPTLAQQCQAFWGPGGQAAEESCFSYDILPGCKASRYRADMCGVLQCKGGQQPLGRAICIVDVCHALTTEDGTAYEPVPEGTRCGPEKVCWKGRCQDLHVYRSSNCSAQCHNHGVCNHKQECHCHAGWAPPHCAKLLTEVHAASGSLPVFVVVVLVLLAVVLVTLAGIIVYRKARSRILSRNVAPKTTMGRSNPLFHQAASRVPAKGGAPAPSRGPQELVPTTHPGQPARHPASSVALKRPPPAPPVTVSSPPFPVPVYTRQAPKQVIKPTFAPPVPPVKPGAGAANPGPAEGAVGPKVALKPPIQRKQGAGAPTAP
B12: SDC4 (protein, UniProt P31431 19-198, looked up)
Syndecan-4: ESIRETEVIDPQDLLEGRYFSGALPDDEDVVGPGQESDDFELSGSGDLDDLEDSMIGPEVVHPLVPLDNHIPERAGSGSQVPTEPKKLEENEVIPKRISPVEESEDVSNKVSMSSTVQGSNIFERTEVLAALIVGGIVGILFAVFLILLLMYRMKKKDEGSYDLGKKPIYKKAPTNEFYA
B13: COMT (protein, UniProt P21964 1-271, looked up)
Catechol O-methyltransferase: MPEAPPLLLAAVLLGLVLLVVLLLLLRHWGWGLCLIGWNEFILQPIHNLLMGDTKEQRILNHVLQHAEPGNAQSVLEAIDTYCEQKEWAMNVGDKKGKIVDAVIQEHQPSVLLELGAYCGYSAVRMARLLSPGARLITIEINPDCAAITQRMVDFAGVKDKVTLVVGASQDIIPQLKKKYDVDTLDMVFLDHWKDRYLPDTLLLEECGLLRKGTVLLADNVICPGAPDFLAHVRGSSCFECTHYQSFLEYREVVDGLEKAIYKGPGSEAGP
B14: WASF1 (protein, UniProt Q92558 1-559, looked up)
Actin-binding protein WASF1: MPLVKRNIDPRHLCHTALPRGIKNELECVTNISLANIIRQLSSLSKYAEDIFGELFNEAHSFSFRVNSLQERVDRLSVSVTQLDPKEEELSLQDITMRKAFRSSTIQDQQLFDRKTLPIPLQETYDVCEQPPPLNILTPYRDDGKEGLKFYTNPSYFFDLWKEKMLQDTEDKRKEKRKQKQKNLDRPHEPEKVPRAPHDRRREWQKLAQGPELAEDDANLLHKHIEVANGPASHFETRPQTYVDHMDGSYSLSALPFSQMSELLTRAEERVLVRPHEPPPPPPMHGAGDAKPIPTCISSATGLIENRPQSPATGRTPVFVSPTPPPPPPPLPSALSTSSLRASMTSTPPPPVPPPPPPPATALQAPAVPPPPAPLQIAPGVLHPAPPPIAPPLVQPSPPVARAAPVCETVPVHPLPQGEVQGLPPPPPPPPLPPPGIRPSSPVTVTALAHPPSGLHPTPSTAPGPHVPLMPPSPPSQVIPASEPKRHPSTLPVISDARSVLLEAIRKGIQLRKVEEQREQEAKHERIENDVATILSRRIAVEYSDSEDDSEFDEVDWLE

system: plasma proteins; test: Plasma proteins modulated between baseline and day 28 in responders (CR, VGPR, PR; n = 19), Example 6 (Table 13); assay type: in vivo, human; details: plasma protein (OLINK NPX); responders (CR, VGPR, PR; n = 19); itacitinib 200 mg or 300 mg QD with corticosteroids; day 28 vs baseline
Summary of the method: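 Longitudinal comparison, day 28 versus baseline, with steroid-naive (N=10) and steroid-refractory (N=18) patients combined. Proteins measured by OLINK proximity extension, log2 normalized protein expression. Differences tested by t tests, ANOVA, Pearson correlation, P<0.05 significant.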

| Molecule | Fold Change, Decreased Expression from Baseline to Day 28 | Fold Change, Increased Expression from Baseline to Day 28 |
| --- | --- | --- |
| B1 | −1.2074 |  |
| B2 | −2.133 |  |
| B3 | −1.2115 |  |
| B4 | −1.7621 |  |
| B5 | −1.1574 |  |
| B6 | −2.0976 |  |
| B7 | −1.8687 |  |
| B8 |  | 2.106 |
| B9 | −1.8219 |  |
| B10 | −2.6612 |  |
| B11 | −1.3896 |  |
| B12 | −1.4678 |  |
| B13 | −1.4304 |  |
| B14 | −1.5354 |  |
